Laboratory results published in paper PMC9943673.

Experiments:
[1] = molecular target: TRF2-pS410 peptide labelled at the N-terminus with carboxyfluorescein (FAM) (human); assay: fluorescence polarisation; fluorescence anisotropy; 3 nM FAM-peptide titrated with TIN2 to 500 nM; 50 mM NaCl, 50 mM phosphate buffer pH 7.0, 25 C
[2] = molecular target: TRF2-CTRL peptide labelled at the N-terminus with carboxyfluorescein (FAM) (human); assay: as above
TIN2 = TIN2 (UniProt Q9BSI4); assay: biotin-peptide pull-down from nuclear extract, MS; details: reference: unphosphorylated peptide (TRF2-CTRL); sites S410

Sequence of TRF2-CTRL peptide labelled at the N-terminus with carboxyfluorescein (FAM) (human) (Q15554 401-420): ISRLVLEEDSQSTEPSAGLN

Row | Kd [1] | Kd [2] | binding against the reference (TIN2) | Substance
1 | 180 nM | 240 nM | – | purified human TIN2 (from UniProt Q9BSI4 1-451) (natural protein)
2 | – | – | stronger | TRF2 (from UniProt Q15554) pS410 peptide
